Positions count from the first letter of the chain named.
Legend:
[1] = target: Ravn pin peptide … (Marburg virus, strain Ravn); experiment: pin peptide ELISA, pin D5
[2] = target: Ravn pin peptide … (Marburg virus, strain Ravn); experiment: pin peptide ELISA, pin D4; overflow value is greater than 3.9
[3] = target: Ravn pin peptide … (Marburg virus, strain Ravn); experiment: pin peptide ELISA, pin D5; overflow value is greater than 3.9
[4] = target: Ravn pin peptide … (Marburg virus, strain Ravn); experiment: pin peptide ELISA, pin D4
[5] = target: Ravn pin peptide […] (Marburg virus, strain Ravn); experiment: pin peptide ELISA, pin D6; overflow value is greater than 3.9
[6] = target: Ravn pin peptide … (Marburg virus, strain Ravn); experiment: pin peptide ELISA, pin printed as D5
[7] = target: Ravn pin peptide … (Marburg virus, strain Ravn); experiment: pin peptide ELISA, pin printed as D6
[8] = target: Ravn pin peptide … (Marburg virus, strain Ravn); experiment: pin peptide ELISA, pin D6

B1: CAN30G4 (antibody, V domains shown)
VH: EVKLVESGGGLVKSGGSLKLSCAVSGFTFSTYAMSWVRQIPEKRLEWVATISNGGSYIYYSDSVKGRFTISRDNAKNTLYLQMSSLRSEDTAMYYCARHRESYRYDWFAYWGQGTLVTVSA
VL: DVLMTQTPLSLPVSLGDQASISCRSSQNIVHSDGNTYLEWYLQKPGQSPKLLIYKFSNRFSGVPDRFSGSGSGTDFTLKISRVEAEDLGVYYCFQGSHVPPTFGAGTKLELK
For B1, the Absorbance (1 hour) [1] was 1.97 and the Absorbance (1 hour) [2] was > 3.9.

B2: CAN30G5 (antibody, V domains shown)
VH: EVQLVESGGGLVQPKGSLKLSCAASGFAFNSYAMHWVCQAPGKGLEWVARIRIKSGNYATSYAGSVTDRFTVSRDDSQNLFYLQMNNLKTEDTAMYYCVREWEGAMDYWGQGTSVTVSS
VL: DIVLTQSPLSLPVSLGDQASISCRSSQSLVHSNGNTYLHWYLQKPGQSPNLLIYKVSNRFSGVPDRFSGSGSGTDFTLKISRVEAEDLGVYFCSQSTHVPWTFGGGTKLEIK
In the case of B2, the Absorbance (1 hour) [3] is reported as > 3.9, the Absorbance (1 hour) [4] is reported as 0.631 and the Absorbance (1 hour) [5] is reported as > 3.9.

B3: CAN54G2 (antibody, V domains shown)
VH: QVQLQQSGTELVRPGTSVKISCKASGYDFTNFWLGWIKQRPGHGLEWIGDIYPGGDNTYYNEKFKGKVTLTADKSSNTAYMQFSSLTSEDSAVYFCFMILYTLDYWGQGTSVTVSS
VL: not shown
B3 was tested, and the Absorbance (1 hour) [6] was 2.76 and the Absorbance (1 hour) [7] was 1.85.

B4: CAN30G3 (antibody, V domains shown)
VH: QVQLKESGPGLVAPSQSLSITCTVSGFSLTDYGITWIRQPPGKGLEWLGVIWGGGSAYYNLVLKSRLSISKDNSKSQVFLKMNSLQTDDTAMYYCAKHRTLITTAMDYWGQGISVTVSS
VL: B1 VL with D33N, P45S, F56V, V99F, P101W, A105G, L111I
B4 was tested, and the Absorbance (1 hour) [1] was 1.84 and the Absorbance (1 hour) [8] was 1.12.

Source: patent US20170226192A1
